In US20160015828A1 (AbbVie / Abbott, published 2016):

T1: human DLL3 (UniProt Q9NYJ7 27-492)
T1 chain: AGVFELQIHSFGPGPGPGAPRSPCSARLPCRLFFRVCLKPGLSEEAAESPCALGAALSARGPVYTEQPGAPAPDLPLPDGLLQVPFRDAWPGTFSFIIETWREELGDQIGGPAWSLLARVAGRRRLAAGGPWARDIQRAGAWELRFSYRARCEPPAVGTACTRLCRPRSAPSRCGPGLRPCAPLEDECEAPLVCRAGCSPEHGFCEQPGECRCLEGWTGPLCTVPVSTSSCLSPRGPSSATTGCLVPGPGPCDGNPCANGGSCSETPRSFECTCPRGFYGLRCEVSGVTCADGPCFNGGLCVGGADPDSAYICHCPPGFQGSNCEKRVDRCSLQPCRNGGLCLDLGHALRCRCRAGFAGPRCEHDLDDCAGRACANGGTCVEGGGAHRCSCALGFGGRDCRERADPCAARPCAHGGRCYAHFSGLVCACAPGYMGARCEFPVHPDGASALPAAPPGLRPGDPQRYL

T2: human DLL3 over-expressed on 293 cells (human, UniProt Q9NYJ7 27-618)
T2 construct: identical extracellular and transmembrane regions; also called hDLL3; Delta-like ligand 3
T2 sequence: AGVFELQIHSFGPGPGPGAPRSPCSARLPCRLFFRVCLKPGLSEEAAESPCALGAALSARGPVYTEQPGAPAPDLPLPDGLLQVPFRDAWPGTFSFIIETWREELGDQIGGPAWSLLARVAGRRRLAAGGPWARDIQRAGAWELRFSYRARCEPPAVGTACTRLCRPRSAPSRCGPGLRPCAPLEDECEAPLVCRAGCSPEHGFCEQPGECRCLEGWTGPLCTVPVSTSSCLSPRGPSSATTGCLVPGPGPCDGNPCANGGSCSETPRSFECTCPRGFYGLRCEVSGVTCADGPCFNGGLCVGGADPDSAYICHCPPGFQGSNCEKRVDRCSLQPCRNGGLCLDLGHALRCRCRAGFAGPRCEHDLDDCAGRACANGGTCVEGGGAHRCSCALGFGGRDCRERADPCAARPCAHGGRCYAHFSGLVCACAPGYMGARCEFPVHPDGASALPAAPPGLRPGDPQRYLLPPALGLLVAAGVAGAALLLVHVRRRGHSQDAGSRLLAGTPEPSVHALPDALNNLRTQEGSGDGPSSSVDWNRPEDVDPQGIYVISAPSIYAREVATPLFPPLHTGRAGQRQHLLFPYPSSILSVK

T3: rat DLL3 over-expressed on 293 cells (rat, UniProt O88671 33-589)
T3 construct: whole, on cells
T3 sequence (looked up): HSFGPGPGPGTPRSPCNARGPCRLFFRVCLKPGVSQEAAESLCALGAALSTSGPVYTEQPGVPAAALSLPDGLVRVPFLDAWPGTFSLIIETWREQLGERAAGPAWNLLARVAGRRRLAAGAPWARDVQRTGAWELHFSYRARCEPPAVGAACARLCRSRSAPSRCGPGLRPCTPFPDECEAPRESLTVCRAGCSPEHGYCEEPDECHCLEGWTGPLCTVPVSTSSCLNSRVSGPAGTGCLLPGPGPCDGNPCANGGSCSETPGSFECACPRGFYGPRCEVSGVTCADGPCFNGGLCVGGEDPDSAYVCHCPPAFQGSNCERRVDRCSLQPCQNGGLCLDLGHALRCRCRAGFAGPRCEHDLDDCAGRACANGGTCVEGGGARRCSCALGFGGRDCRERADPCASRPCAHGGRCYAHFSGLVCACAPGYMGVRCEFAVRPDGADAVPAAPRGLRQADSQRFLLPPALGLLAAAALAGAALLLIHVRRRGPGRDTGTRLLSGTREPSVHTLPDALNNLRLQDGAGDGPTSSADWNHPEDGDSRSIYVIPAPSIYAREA


What was measured:
[1] = biological target: T1, human DLL3; test: SPR (Biacore)
[2] = biological target: T2, human DLL3 over-expressed on 293 cells; test: flow cytometry, 293 cells over-expressing human DLL3
Description: (§1) In addition to evaluating the exemplary modulators as set forth above, flow cytometry was performed in order to confirm that selected SC16 antibody modulators can immunospecifically associate with human DLL3 and to determine whether the same antibodies cross-react with cynomolgus, rat and/or murine DLL3. More particularly the exemplary murine antibodies were analyzed by flow cytometry using a FACSCanto II and 293 cells over-expressing murine, rat, cynomolgus or human DLL3. In some cases, exemplary murine modulators were analyzed by flow cytometry using a FACSCanto II and yeast cells displaying cynomolgus DLL3 using the methods described by Cochran et al. (J Immunol Methods. 287 (1-2):147-158 (2004).

[3] = biological target: T1, human DLL3; test: BLI (ForteBio)
[4] = biological target: T3, rat DLL3 over-expressed on 293 cells; test: flow cytometry, 293 cells over-expressing rat DLL3
Description: as §1

[5] = biological target: T1, human DLL3; test: BLI (ForteBio)

Row | Binder | Kd [1] [nM] | binding result [2] | Kd [3] [nM] | binding result [4] | Kd [5] [nM]
1 | SC16.25 (antibody, V domains shown, murine mAb; V regions only) VH: QVTLKESGPGILQPSQTLSLTCSFSGFSLSTSGMGVGWIRQPSGEGLEWLTDIWWDDNKYYNPSLKSRLTISKDTSSNQVFLNITSVDTADTATYYCARRVNYYYDPYYAMDYWGQGTSVTVSS VL: QIVLTQSPAIMSASPGEKVTMTCSASSSVSYMHWYQQKSGTSPKRWIYDSSKLASGVPARFSGSGSGTSYSLTISSMEAEDAATYYCQQWSSNPLTFGAGTKLELK | 0.2 | binds |  |  | 
2 | SC16.65 (antibody, V domains shown, murine mAb; V regions only) VH: QVTLKESGPGILQPSQTLSLTCSFSGFSLSTSGMGVGWIRQPSGKGLEWLALIWWDDVKRYNPALKSRLTISKDASSSQVFLKIASVDTADTATYYCARIASYDYDVVYAMDYWGQGTSVSVSS VL: QIVLTQSPALMSASPGEKVTMTCSVTSSVSYMYWYQQKPRSSPKPWIYLTSNLASGVPARFSGSGSGTSYSLTISSVEAEDAATYYCQQWRNNPFTFGSGTKVEIK | 0.9 | binds |  |  | 
3 | SC16.13 (antibody, V domains shown) VH: QVTLKESGPGILQPSQTLSLTCSFSGFSLSTSGMGVGWIRQPSGKGLEWLAHIWWDDVKRYNPALKSRLTISKDTSSSQVFLKIASVDTADTATYYCARIVSFDNDVVSAMDYWGQGTSVTVSS VL: QIVLTQSPALVSASPGEKVTMTCSASSSVSYMYWYQQKPRSSPKPWIYLTSNLASGVPARFSGSGSGTSYSLTISSMEAEDAATYYCQQWRSNPFTFGSGTKLEIK | 2 |  |  |  | 
4 | SC16.67 (antibody, V domains shown) VH: EVQLVETGGGLVQPKGSLKLSCAVSAFTFTTYAMNWVRQAPGKGLEWVARIRNKSNNYATYYADSVKDRFTISRDDSQSMLYLQMNNLKIEDTAMYYCVFYYDYVYWGQGTLVTVSA VL: QAVVTQESALTTSPGETVTLTCRSSTGAVTTSNYANWIQEKPDHLFTGLIGGTNNRAPGVPARFSGSLIGDKAALTITGAQTEDEAIYFCGLWYSNHLVFGGGTKLTVL |  |  | 0.5 |  | 
5 | SC16.10 (antibody, V domains shown, murine mAb; V regions only) VH: QVTLKESGPGILQSSQTLSLTCSFSGFSLSTSGMGVGWIRQPSGKGLEWLAHIWWDDVKRYNPVLKSRLTISKDTSSSQVFLKIASVDTADTATYYCARLVDDLYYFDYWGQGTTLTVSS VL: QIVLTQSPAIMSASLGERVTMTCTASSSVSSSYLHWYQQKPGSSPKLWIYSTSNLASGVPTRFSGSGSGTSYSLTISSMEAEDAATYYCHQYHRSPFTFGSGTKLEIK |  | binds | 4 |  | 
6 | SC16.39 (antibody, V domains shown) VH: EVKLEESGGGLVQFGGSMKLSCAASGFTFSDAWMDWVRQSPEKGLEWVAEIRNKANNHATYYPESVKGRFTISRDDSKSRVYLQMNNLRAEDTGIYYCTGYSSFAYWGQGTLVTVSA VL: DIQMTQTTSSLSASLGDRVTISCRASQDVINYLNWYQQKPDGTVKLLIYYTSRLHSGVPSRFSGSGSRTDYSLTISNLEPEDIATYYCQQYSERPYTFGGGTKLEIK |  |  |  |  | 1

The remaining lines, values ahead:

Row | Kd [1] [nM] | binding result [2] | Kd [3] [nM] | binding result [4] | Kd [5] [nM] | Binder
7 | 1 | binds |  | binds |  | SC16.56 (antibody, V domains shown, murine mAb; V regions only) VH: QIQLVQSGPELKKPGETVKISCKASGYTFTNYGMNWVKQAPGKGLKWMAWINTYTGEPTYADDFKGRFAFSLETSASTASLQIINLKNEDTATYFCARIGDSSPSDYWGQGTTLTVSS VL: SIVMTQTPKFLLVSAGDRVTITCKASQSVSNDVVWYQQKPGQSPKLLIYYASNRYTGVPDRFAGSGYGTDFSFTISTVQAEDLAVYFCQQDYTSPWTFGGGTKLEIR
8 | 0.2 | binds |  | binds |  | SC16.34 (antibody, V domains shown, murine mAb; V regions only) VH: QIQLVQSGPELKRPGETVKISCKASGYTFTNYGMNWVKQAPGKGLKWMGWINTYTGDPTYADDFKGRFAFSLETSASTAYLQINNLKNEDTATYFCARIGGNSPSDYWGQGTSLTVSS VL: SIVMTQTPKFLLVSAGDRVTITCKASQSVSNDVAWYQQKPGQSPKLLIYYASNRYSGVPDRFTGSGYGTDFTFTISTVQAEDLAVYFCQQDYSSPWTFGGGTKLEIK
9 |  | binds | 0.5 | binds |  | SC16.4 (antibody, V domains shown, murine mAb; V regions only) VH: QIQLVQSGPELKKPGETVKISCKASGYTFTDYSMHWVKQAPGKGLKWMGWINTETGEPGYADDFKGRFAFSLETSASTAYLQINNLKNEDTATYFCARYDGYAMDYWGQGTSVTVSS VL: DIQMTQTTSSLSASLGDRVTISCRASQDISNYLNWYQQKPDGTVKLLIYYTSRLHSGVPSRFSGSGSGTDYSLTISNLELEDIATYFCQQGDMLPWTFGGGTKLEIK
10 |  | binds | 0.5 | binds |  | SC16.8 (antibody, V domains shown, murine mAb; V regions only) VH: QAQLQQSGAELVRPGTSVKVSCKASGYAFTNYLIEWVKQRPGQGLEWIGVINPGTGGTNYNENFKGKATLTADKSSSTAYMQLSSLTSDDSAVYFCARSPYDYHEGAMDYWGQGTSVTVSS VL: EIQMTQSPSSMSASLGDRITITCQATQDIVKNLNWYQQKPGKPPSFLIYYAIELAEGVPSRFSGSGSGSDYSLTISNLESEDFADYYCLQFYEFPFTFGAGTKLELK
11 |  | binds |  |  |  | SC16.7 (antibody, V domains shown, murine mAb; V regions only) VH: EVQLQQSGPELVKPGASVKISCKASGYSFTGYKMHWVKQSHVKSLEWIGRINPYNGATSYNQNFKDKATLTVDKSSSTAYMDLHSLTSEDSAVYFCARGDYRYDWFAYWGQGTLVTVSA VL: NIMMTQSPSSLAVSAGEKVTMSCKSSQSVLYSSNQKNYLAWYQQKPGQSPKLLIYWASTRESGVPDRFTGSGSGTDFTLTISTVQVEDLAVYYCHQYLSSWTFGGGTKLEIK
12 | 0.5 | binds |  | binds |  | SC16.15 (antibody, V domains shown, murine mAb; V regions only) VH: QVQLQQSGAELAKPGASVKMSCKASGYTFTRYWIHWIKQRPGQGLEWIGYINPTTVYTEFNQNFKDKATLTADKSSTTASMQLSSLTSEDSAVYYCARGGSNFFDYWGQGTTLTVSS VL: DIQMTQSPASLAASVGETVAITCRASENIYYNLAWYQQKQGKSPQLLIYTANSLEDGVPSRFSGSGSGTQYSLKINSMQPEDSATYFCKQAYDVPPTFGGGTKLEIK
